# Test results as given in PMC12786357.
# Experiments:
# [1] = biological target: S. cerevisiae GPI transamidase (GPIT) complex (S. cerevisiae); test: cryo-EM structure; dimeric GPIT peak of the SEC, about 5 mg/mL, in GDN; overall resolution 4.4 Å; two copies of the monomer model docked as rigid bodies
# [2] = FACS, surface GFP-V5-CWP2 in yeast chromosomal mutants; details: glycan lost; control: wild type
# [3] = anti-FLAG western blot, HEK293F; details: glycan lost; control: wild type
Molecule,stoichiometry N [1],enzymatic_activity [2],expression_or_secretion [3]
S. cerevisiae GPI transamidase (GPIT) complex,2,,
Gpi16: N29Q (protein) parent chain: MILTLAYFMLGTLLLGVFAEDTVSQIGINDSLWYPYDEALVLKPLPNNDLLLSFAFQLQSEPFDPAVSSMSYDAYEHYTTFPRAIPPLLESTATRQFHLRFTRGFWDALSWGQLPHAGKEAGASGVELWSQVQAMDQEQAFHNWKKLSNSLSGLFCSSLNFIDESRTTFPRRSYASDIGAPLFNSTEKLYLMRASLPNEPICTENLTPFIKLLPTRGKSGLTSLLDGHKLFDSLWNSISLDIATICSEDEDALCHYEMDARIEMVTHVPSALARGERPIPKPLDGNTLRCDTDKPFDSYQCFPLPEPSQTHFKLSQLFARPINNGNLFANRPTRICAEVDRSTWTAFLSVDDTIFSTHDNCFDLSNDQNEGGSGYDFILESTDTTKVTPIVPVPIHVSRSLTGNGQDRGGMRIVFHNDNDTPVKLIYFESLPWFMRVYLSSLQITSTTSPQLQENDIILDKYYLQAADRKRPGHLEFTMLIPANTDIVMTYQFDKALLQFAEYPPDANHGFEIDAAVITVLSLESSSSLYEMRTSTLLLSLSTPDFSMPYNVIILTSTIMGLIFGMLYNLMVKRMVTVEEADKITLQSGLKYKLLKLKEKFLGKKKTKTD,,no change,no change
Gpi16: N184Q (protein) parent chain: MILTLAYFMLGTLLLGVFAEDTVSQIGINDSLWYPYDEALVLKPLPNNDLLLSFAFQLQSEPFDPAVSSMSYDAYEHYTTFPRAIPPLLESTATRQFHLRFTRGFWDALSWGQLPHAGKEAGASGVELWSQVQAMDQEQAFHNWKKLSNSLSGLFCSSLNFIDESRTTFPRRSYASDIGAPLFNSTEKLYLMRASLPNEPICTENLTPFIKLLPTRGKSGLTSLLDGHKLFDSLWNSISLDIATICSEDEDALCHYEMDARIEMVTHVPSALARGERPIPKPLDGNTLRCDTDKPFDSYQCFPLPEPSQTHFKLSQLFARPINNGNLFANRPTRICAEVDRSTWTAFLSVDDTIFSTHDNCFDLSNDQNEGGSGYDFILESTDTTKVTPIVPVPIHVSRSLTGNGQDRGGMRIVFHNDNDTPVKLIYFESLPWFMRVYLSSLQITSTTSPQLQENDIILDKYYLQAADRKRPGHLEFTMLIPANTDIVMTYQFDKALLQFAEYPPDANHGFEIDAAVITVLSLESSSSLYEMRTSTLLLSLSTPDFSMPYNVIILTSTIMGLIFGMLYNLMVKRMVTVEEADKITLQSGLKYKLLKLKEKFLGKKKTKTD,,no change,no change
Gpi17: N228Q (protein) parent chain: MSNANLRKWVGFCFVAIYLFLGVPLWYKLTTVYRASLPINYIESLQNNKFQDIHLVIPVYVKSDTYRFPDVHDAIQVQVNHLLNSQEQRVPWSLQVLPYNETIEQMESEGNQFHVVTLKLDEFIGYSSAYDTKETLVYYDDAAVLSNDLPFFVAQTLVEHTFQLEWTHLNKTCEGVSTNNDVAISYDPNIHLSVTLLSGDGNPVAWEIEPTLTDYFSPFRKFLSPLVNFTVDSSIVYHNDLNLHSLNGSCTSVTWFDLSHTIDLSELSSMAYYPEDSALNLAIVFPSASSSPDGLAFINGTRISDEITTLDWNSYLVPQWGVIIINKMPLKPNSVISEDYLEPMMYRFATDIFQLLGLTEGSQDLLSPYITIDSFKRLTILQNLDKATETLWSLVKLTQQFQGMSIPREVSDNVIEALDLRLQIIDLLNDPGKGGDIVWNNALHLSNELVKLCEKAFFNGEMVQQNFFPQEHMIAVYLPLLGPISAVMFFGFYNVMKEKNQKSKKNGTEREVAKEKLELKEAQKLHAIDGEDEL,,decreases,no change
Gpi17: N299Q (protein) parent chain: MSNANLRKWVGFCFVAIYLFLGVPLWYKLTTVYRASLPINYIESLQNNKFQDIHLVIPVYVKSDTYRFPDVHDAIQVQVNHLLNSQEQRVPWSLQVLPYNETIEQMESEGNQFHVVTLKLDEFIGYSSAYDTKETLVYYDDAAVLSNDLPFFVAQTLVEHTFQLEWTHLNKTCEGVSTNNDVAISYDPNIHLSVTLLSGDGNPVAWEIEPTLTDYFSPFRKFLSPLVNFTVDSSIVYHNDLNLHSLNGSCTSVTWFDLSHTIDLSELSSMAYYPEDSALNLAIVFPSASSSPDGLAFINGTRISDEITTLDWNSYLVPQWGVIIINKMPLKPNSVISEDYLEPMMYRFATDIFQLLGLTEGSQDLLSPYITIDSFKRLTILQNLDKATETLWSLVKLTQQFQGMSIPREVSDNVIEALDLRLQIIDLLNDPGKGGDIVWNNALHLSNELVKLCEKAFFNGEMVQQNFFPQEHMIAVYLPLLGPISAVMFFGFYNVMKEKNQKSKKNGTEREVAKEKLELKEAQKLHAIDGEDEL,,decreases,no change
